Sequences and labels used below:
T1: EsCas13d, nuclease-dead (Eubacterium siraeum, UniProt B0MS50, R295A;H300A;R849A;H854A)
T1 sequence: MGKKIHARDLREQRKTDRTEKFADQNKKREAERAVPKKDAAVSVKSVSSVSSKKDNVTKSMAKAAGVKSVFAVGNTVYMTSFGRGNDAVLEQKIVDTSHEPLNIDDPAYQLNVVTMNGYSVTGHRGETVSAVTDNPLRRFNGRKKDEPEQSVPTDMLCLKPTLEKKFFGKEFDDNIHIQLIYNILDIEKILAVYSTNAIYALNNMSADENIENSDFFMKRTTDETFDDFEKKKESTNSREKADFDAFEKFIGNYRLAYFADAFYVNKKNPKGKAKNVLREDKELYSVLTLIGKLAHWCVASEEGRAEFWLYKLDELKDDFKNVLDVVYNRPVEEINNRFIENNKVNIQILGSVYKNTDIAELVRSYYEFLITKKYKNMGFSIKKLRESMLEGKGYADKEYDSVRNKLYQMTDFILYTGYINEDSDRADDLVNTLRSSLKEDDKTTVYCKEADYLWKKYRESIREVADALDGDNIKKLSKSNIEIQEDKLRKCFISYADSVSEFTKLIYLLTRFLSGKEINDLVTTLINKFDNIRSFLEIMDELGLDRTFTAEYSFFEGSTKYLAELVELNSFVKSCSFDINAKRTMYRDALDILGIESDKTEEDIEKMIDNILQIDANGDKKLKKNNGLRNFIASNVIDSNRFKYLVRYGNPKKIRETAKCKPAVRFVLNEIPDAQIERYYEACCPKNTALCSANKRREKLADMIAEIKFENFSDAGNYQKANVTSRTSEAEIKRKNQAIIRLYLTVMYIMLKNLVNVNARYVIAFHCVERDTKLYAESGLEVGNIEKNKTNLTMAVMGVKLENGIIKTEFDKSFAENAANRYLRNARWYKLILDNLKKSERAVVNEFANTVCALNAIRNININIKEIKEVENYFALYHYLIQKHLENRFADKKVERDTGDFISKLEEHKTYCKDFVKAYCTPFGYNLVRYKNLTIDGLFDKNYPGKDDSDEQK

B1: target 1 C4G,C22U (mixed)
RNA 1: CACCCGUGCAAAAAUGCAGGGGUCUAAAACUGAGCGGAUAACCUCUCUAUGG
RNA 2: GGGAAUGGAUCCACAUCUACGAAUUCGUAUCAUAGAGAGGUUAUCCGGUCACCGAGAUCGGAAGAGCACACGU
B2: target 1 insC 3' of 11,insA 3' of 8 (mixed)
RNA 1: CACCCGUGCAAAAAUGCAGGGGUCUAAAACUGAGCGGAUAACCUCUCUAUGG
RNA 2: GGGAAUGGAUCCACAUCUACGAAUUCGUACCAUAGAGAGGUCUAUACCGCUCACCGAGAUCGGAAGAGCACACGU
B3: target 1 insA 3' of 22,insC 3' of 15 (mixed)
RNA 1: CACCCGUGCAAAAAUGCAGGGGUCUAAAACUGAGCGGAUAACCUCUCUAUGG
RNA 2: GGGAAUGGAUCCACAUCUACGAAUUCGUACACAUAGAGCAGGUUAUCCGCUCACCGAGAUCGGAAGAGCACACGU
B4: target 1 insG 3' of 21,insG 3' of 8 (mixed)
RNA 1: CACCCGUGCAAAAAUGCAGGGGUCUAAAACUGAGCGGAUAACCUCUCUAUGG
RNA 2: GGGAAUGGAUCCACAUCUACGAAUUCGUACCGAUAGAGAGGUUAUGCCGCUCACCGAGAUCGGAAGAGCACACGU
B5: target 1 insC 3' of 19,insA 3' of 13 (mixed)
RNA 1: CACCCGUGCAAAAAUGCAGGGGUCUAAAACUGAGCGGAUAACCUCUCUAUGG
RNA 2: GGGAAUGGAUCCACAUCUACGAAUUCGUACCAUCAGAGAGAGUUAUCCGCUCACCGAGAUCGGAAGAGCACACGU
B6: target 1 insG 3' of 7,insU 3' of 2 (mixed)
RNA 1: CACCCGUGCAAAAAUGCAGGGGUCUAAAACUGAGCGGAUAACCUCUCUAUGG
RNA 2: GGGAAUGGAUCCACAUCUACGAAUUCGUACCAUAGAGAGGUUAUCGCGCUCUACCGAGAUCGGAAGAGCACACGU
B7: target 1 insC 3' of 10,insG 3' of 8 (mixed)
RNA 1: CACCCGUGCAAAAAUGCAGGGGUCUAAAACUGAGCGGAUAACCUCUCUAUGG
RNA 2: GGGAAUGGAUCCACAUCUACGAAUUCGUACCAUAGAGAGGUUCAUGCCGCUCACCGAGAUCGGAAGAGCACACGU
B8: target 1 A14C (mixed)
RNA 1: CACCCGUGCAAAAAUGCAGGGGUCUAAAACUGAGCGGAUAACCUCUCUAUGG
RNA 2: GGGAAUGGAUCCACAUCUACGAAUUCGUACCAUAGAGCGGUUAUCCGCUCACCGAGAUCGGAAGAGCACACGU
B9: target 1 A16U,G17A (mixed)
RNA 1: CACCCGUGCAAAAAUGCAGGGGUCUAAAACUGAGCGGAUAACCUCUCUAUGG
RNA 2: GGGAAUGGAUCCACAUCUACGAAUUCGUACCAUAAUGAGGUUAUCCGCUCACCGAGAUCGGAAGAGCACACGU
B10: target 1 insA 3' of 21,insG 3' of 3 (mixed)
RNA 1: CACCCGUGCAAAAAUGCAGGGGUCUAAAACUGAGCGGAUAACCUCUCUAUGG
RNA 2: GGGAAUGGAUCCACAUCUACGAAUUCGUACCAAUAGAGAGGUUAUCCGCUGCACCGAGAUCGGAAGAGCACACGU
B11: target 1 A9G,U11G (mixed)
RNA 1: CACCCGUGCAAAAAUGCAGGGGUCUAAAACUGAGCGGAUAACCUCUCUAUGG
RNA 2: GGGAAUGGAUCCACAUCUACGAAUUCGUACCAUAGAGAGGGUGUCCGCUCACCGAGAUCGGAAGAGCACACGU
B12: target 1 A1G,A18U (mixed)
RNA 1: CACCCGUGCAAAAAUGCAGGGGUCUAAAACUGAGCGGAUAACCUCUCUAUGG
RNA 2: GGGAAUGGAUCCACAUCUACGAAUUCGUACCAUUGAGAGGUUAUCCGCUCGCCGAGAUCGGAAGAGCACACGU
B13: target 1 insC 3' of 20,insA 3' of 15 (mixed)
RNA 1: CACCCGUGCAAAAAUGCAGGGGUCUAAAACUGAGCGGAUAACCUCUCUAUGG
RNA 2: GGGAAUGGAUCCACAUCUACGAAUUCGUACCACUAGAGAAGGUUAUCCGCUCACCGAGAUCGGAAGAGCACACGU
B14: target 1 G5U,G15U (mixed)
RNA 1: CACCCGUGCAAAAAUGCAGGGGUCUAAAACUGAGCGGAUAACCUCUCUAUGG
RNA 2: GGGAAUGGAUCCACAUCUACGAAUUCGUACCAUAGAUAGGUUAUCCUCUCACCGAGAUCGGAAGAGCACACGU
B15: target 1 A1C,A18U (mixed)
RNA 1: CACCCGUGCAAAAAUGCAGGGGUCUAAAACUGAGCGGAUAACCUCUCUAUGG
RNA 2: GGGAAUGGAUCCACAUCUACGAAUUCGUACCAUUGAGAGGUUAUCCGCUCCCCGAGAUCGGAAGAGCACACGU
B16: target 1 insG 3' of 21,insA 3' of 8 (mixed)
RNA 1: CACCCGUGCAAAAAUGCAGGGGUCUAAAACUGAGCGGAUAACCUCUCUAUGG
RNA 2: GGGAAUGGAUCCACAUCUACGAAUUCGUACCGAUAGAGAGGUUAUACCGCUCACCGAGAUCGGAAGAGCACACGU
B17: target 1 insC 3' of 18,insU 3' of 12 (mixed)
RNA 1: CACCCGUGCAAAAAUGCAGGGGUCUAAAACUGAGCGGAUAACCUCUCUAUGG
RNA 2: GGGAAUGGAUCCACAUCUACGAAUUCGUACCAUACGAGAGGUUUAUCCGCUCACCGAGAUCGGAAGAGCACACGU
B18: target 1 insU 3' of 17,insG 3' of 9 (mixed)
RNA 1: CACCCGUGCAAAAAUGCAGGGGUCUAAAACUGAGCGGAUAACCUCUCUAUGG
RNA 2: GGGAAUGGAUCCACAUCUACGAAUUCGUACCAUAGUAGAGGUUAGUCCGCUCACCGAGAUCGGAAGAGCACACGU
B19: target 1 U3C,G12C (mixed)
RNA 1: CACCCGUGCAAAAAUGCAGGGGUCUAAAACUGAGCGGAUAACCUCUCUAUGG
RNA 2: GGGAAUGGAUCCACAUCUACGAAUUCGUACCAUAGAGAGCUUAUCCGCCCACCGAGAUCGGAAGAGCACACGU
B20: target 1 insU 3' of 12,insG 3' of 6 (mixed)
RNA 1: CACCCGUGCAAAAAUGCAGGGGUCUAAAACUGAGCGGAUAACCUCUCUAUGG
RNA 2: GGGAAUGGAUCCACAUCUACGAAUUCGUACCAUAGAGAGGUUUAUCCGGCUCACCGAGAUCGGAAGAGCACACGU
B21: target 1 insC 3' of 9,insG 3' of 6 (mixed)
RNA 1: CACCCGUGCAAAAAUGCAGGGGUCUAAAACUGAGCGGAUAACCUCUCUAUGG
RNA 2: GGGAAUGGAUCCACAUCUACGAAUUCGUACCAUAGAGAGGUUACUCCGGCUCACCGAGAUCGGAAGAGCACACGU
B22: target 1 A18U (mixed)
RNA 1: CACCCGUGCAAAAAUGCAGGGGUCUAAAACUGAGCGGAUAACCUCUCUAUGG
RNA 2: GGGAAUGGAUCCACAUCUACGAAUUCGUACCAUUGAGAGGUUAUCCGCUCACCGAGAUCGGAAGAGCACACGU
B23: target 1 insA 3' of 21,insA 3' of 19 (mixed)
RNA 1: CACCCGUGCAAAAAUGCAGGGGUCUAAAACUGAGCGGAUAACCUCUCUAUGG
RNA 2: GGGAAUGGAUCCACAUCUACGAAUUCGUACCAAUAAGAGAGGUUAUCCGCUCACCGAGAUCGGAAGAGCACACGU
B24: target 1 insA 3' of 17,insC 3' of 13 (mixed)
RNA 1: CACCCGUGCAAAAAUGCAGGGGUCUAAAACUGAGCGGAUAACCUCUCUAUGG
RNA 2: GGGAAUGGAUCCACAUCUACGAAUUCGUACCAUAGAAGAGCGUUAUCCGCUCACCGAGAUCGGAAGAGCACACGU
B25: target 1 A1U,A18U (mixed)
RNA 1: CACCCGUGCAAAAAUGCAGGGGUCUAAAACUGAGCGGAUAACCUCUCUAUGG
RNA 2: GGGAAUGGAUCCACAUCUACGAAUUCGUACCAUUGAGAGGUUAUCCGCUCUCCGAGAUCGGAAGAGCACACGU
B26: target 1 insU 3' of 4,insU 3' of 1 (mixed)
RNA 1: CACCCGUGCAAAAAUGCAGGGGUCUAAAACUGAGCGGAUAACCUCUCUAUGG
RNA 2: GGGAAUGGAUCCACAUCUACGAAUUCGUACCAUAGAGAGGUUAUCCGCUUCAUCCGAGAUCGGAAGAGCACACGU
B27: target 1 A9C,U10G (mixed)
RNA 1: CACCCGUGCAAAAAUGCAGGGGUCUAAAACUGAGCGGAUAACCUCUCUAUGG
RNA 2: GGGAAUGGAUCCACAUCUACGAAUUCGUACCAUAGAGAGGUGCUCCGCUCACCGAGAUCGGAAGAGCACACGU

This data set deals with T1, EsCas13d, nuclease-dead. As to the kind of experiment: crRNA (strand 1, pre-loaded); Mg2+; 40 mM Tris-HCl pH 7.5, 150 mM NaCl, 6 mM MgCl2, 1 mM DTT, 0.1% Tween-20, 0.2 mg/ml BSA; 25 C; 10 min per concentration, then washed. Particulars: tags: His6-TwinStrep-SUMO cleaved; N-terminal SNAP kept (SNAP-Surface 488); label: 3' end held by stalled T7 RNA polymerase.
Regarding B1, binding was put at a Kd of 10 ± 2 nM.

As to B2, binding was characterised by a dissociation constant (Kd) of 41.4 ± 3.2 nM.

In turn, B3 came in with a Kd of 28.5 ± 2.2 nM.

Consider B4, for which the Kd stood at 58 ± 10 nM.

Turning to B5, binding was put at a Kd of 19.5 ± 1.7 nM.

With B6, the dissociation constant (Kd) stood at 9.6 ± 0.9 nM.

Consider B7, for which the Kd amounted to 15.7 ± 0.8 nM.

For the molecule B8, binding was put at a Kd of 31 ± 7 nM.

Take B9: binding was characterised by a dissociation constant (Kd) of 44 ± 6 nM.

Turning to B10, binding was characterised by a dissociation constant (Kd) of 11.8 ± 0.6 nM.

The molecule B11 returned a Kd of 15.1 ± 0.7 nM.

With B12, the Kd was 24.6 ± 1.7 nM.

B13 returned a Kd of 12.2 ± 1.1 nM.

On to B14, for which the affinity, expressed as Kd, was 31 ± 4 nM.

B15 had a Kd of approximately 40 nM.

On to B16, for which the affinity, expressed as Kd, was 64 ± 11 nM.

In turn, B17 showed a Kd of 28.6 ± 1.7 nM.

B18 had a Kd of 38 ± 4 nM.

For B19, binding was characterised by a dissociation constant (Kd) of 14 ± 2.3 nM.

The molecule B20 registered a dissociation constant Kd of 6.24 ± 0.17 nM.

Take B21: binding was characterised by a dissociation constant (Kd) of 14.4 ± 1.2 nM.

For B22, the Kd worked out at 26.4 ± 1.2 nM.

The molecule B23 displayed a Kd of 32.2 ± 2.4 nM.

B24 came in with a Kd of 35 ± 4 nM.

B25 displayed a Kd of 22 ± 2 nM.

Consider B26, for which the affinity, expressed as Kd, was 8.56 ± 0.33 nM.

The molecule B27 displayed a Kd of 16.1 ± 0.6 nM.

Values taken from article PMC10786891, “Massively parallel profiling of RNA-targeting CRISPR-Cas13d”.
